Results: PMC9569990 (International Journal of Molecular Sciences, 2022)

Tests used:
Assay in all cases: SPR; cytokine immobilised on ProteOn GLH sensor chip by amine coupling (9,000-14,000 RU); S100P (wild type or mutant) as analyte, 62 nM-16 µM; 25 °C; 10 mM HEPES, 150 mM NaCl, 1 mM CaCl2, 0.05% TWEEN 20, pH 7.4; heterogeneous ligand model (two ligand populations), one-site model for IL-13; values averaged over analyte concentrations (n = 3-5)
Details in all cases: both partners purified
Interleukin-26 [1] = molecular target: T1, Interleukin-26 (human, UniProt Q9NPH9 22-171)
T1 construct: Interleukin-26, human, UniProt Q9NPH9; see the manufacturer's catalogue number; also called IL-26; source: bought: R&D Systems (source E. coli)
T1 sequence (looked up): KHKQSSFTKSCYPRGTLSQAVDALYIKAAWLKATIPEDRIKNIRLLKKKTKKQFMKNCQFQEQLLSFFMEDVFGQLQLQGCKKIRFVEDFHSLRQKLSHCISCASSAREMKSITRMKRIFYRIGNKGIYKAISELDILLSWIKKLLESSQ

Interleukin-9 = molecular target: T2, Interleukin-9 (human, UniProt P15248 19-144)
T2 construct: Interleukin-9, human, UniProt P15248; see the manufacturer's catalogue number; also called IL-9; source: bought: PeproTech (source E. coli)
T2 sequence (P15248 19-144): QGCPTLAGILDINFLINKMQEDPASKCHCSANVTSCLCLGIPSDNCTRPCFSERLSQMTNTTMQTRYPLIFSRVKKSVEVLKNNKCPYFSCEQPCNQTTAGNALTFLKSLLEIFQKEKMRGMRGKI

Interleukin-20 = molecular target: T3, Interleukin-20 (human, UniProt Q9NYY1 25-176)
T3 construct: Interleukin-20, human, UniProt Q9NYY1; see the manufacturer's catalogue number; also called IL-20; source: bought: PeproTech (source E. coli)
T3 sequence (looked up): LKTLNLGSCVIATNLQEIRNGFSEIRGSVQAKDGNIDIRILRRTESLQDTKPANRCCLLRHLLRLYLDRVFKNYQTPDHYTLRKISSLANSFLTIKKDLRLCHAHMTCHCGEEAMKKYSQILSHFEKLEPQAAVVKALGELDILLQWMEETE

Leptin = molecular target: T4, Leptin (human, UniProt P41159 22-167)
T4 construct: Leptin, human, UniProt P41159; see the manufacturer's catalogue number; source: bought: PeproTech (source E. coli)
T4 sequence (P41159 22-167): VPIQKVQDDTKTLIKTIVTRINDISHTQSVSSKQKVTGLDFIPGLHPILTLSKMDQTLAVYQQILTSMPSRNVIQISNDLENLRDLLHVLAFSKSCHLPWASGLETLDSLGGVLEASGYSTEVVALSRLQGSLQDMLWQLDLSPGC

Somatotropin = molecular target: T5, Somatotropin (human, UniProt P01241 27-217)
T5 construct: Somatotropin (growth hormone), human, UniProt P01241; see the manufacturer's catalogue number; also called GH; growth hormone; source: bought: PeproTech (source E. coli)
T5 sequence (P01241 27-217): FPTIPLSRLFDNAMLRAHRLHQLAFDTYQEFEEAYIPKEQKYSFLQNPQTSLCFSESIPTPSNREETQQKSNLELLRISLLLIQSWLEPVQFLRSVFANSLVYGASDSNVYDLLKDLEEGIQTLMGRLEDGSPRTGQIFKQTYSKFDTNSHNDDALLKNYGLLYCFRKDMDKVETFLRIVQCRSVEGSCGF

Interleukin-26 [2] = molecular target: T1, Interleukin-26; remark: listed apart in the source
Interleukin-31 = molecular target: T6, Interleukin-31 (human, UniProt Q6EBC2 24-164)
T6 construct: Interleukin-31, human, UniProt Q6EBC2; see the manufacturer's catalogue number; also called IL-31; source: bought: PeproTech (source E. coli)
T6 sequence (looked up): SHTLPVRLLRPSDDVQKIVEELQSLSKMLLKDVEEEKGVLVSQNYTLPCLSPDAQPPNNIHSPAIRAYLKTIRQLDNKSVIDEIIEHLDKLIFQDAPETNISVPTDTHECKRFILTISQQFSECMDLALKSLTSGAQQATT

B1: Human S100P protein (recombinant, Ca^2+-loaded) (natural protein)
chain: MTELETAMGMIIDVFSRYSGSEGSTQTLTKGELKVLMEKELPGFLQSGKDKDAVDKLLKDLDANGDAQVDFSEFIVFVAAITSACHKYFEKAGLK
notes: S100P protein, human, recombinant; probably the whole 95-residue protein (surmise); also called wild-type S100P; WT S100P; source: E. coli, prepared as previously described [28]
Interleukin-26 [1]
  Kd1 (heterogeneous ligand model, population 1): 9.02 nM
  Kd2 (heterogeneous ligand model, population 2): 1.32 µM
  kd1 (heterogeneous ligand model, population 1): 0.000144 s⁻¹
  kd2 (heterogeneous ligand model, population 2): 0.00509 s⁻¹
Interleukin-9
  Kd1 (heterogeneous ligand model, population 1): 34.7 nM
  Kd2 (heterogeneous ligand model, population 2): 136 nM
  kd1 (heterogeneous ligand model, population 1): 0.000531 s⁻¹
  kd2 (heterogeneous ligand model, population 2): 0.017 s⁻¹
Interleukin-20
  Kd1 (heterogeneous ligand model, population 1): 403 nM
  Kd2 (heterogeneous ligand model, population 2): 537 nM
  kd1 (heterogeneous ligand model, population 1): 0.000442 s⁻¹
  kd2 (heterogeneous ligand model, population 2): 0.0246 s⁻¹
Leptin
  Kd1 (heterogeneous ligand model, population 1): 143 nM
  Kd2 (heterogeneous ligand model, population 2): 404 nM
  kd1 (heterogeneous ligand model, population 1): 0.000452 s⁻¹
  kd2 (heterogeneous ligand model, population 2): 0.0307 s⁻¹

B2: Human S100P mutant F89A (natural protein)
chain: MTELETAMGMIIDVFSRYSGSEGSTQTLTKGELKVLMEKELPGFLQSGKDKDAVDKLLKDLDANGDAQVDFSEFIVFVAAITSACHKYAEKAGLK
notes: S100P protein, human, recombinant, with F89A; source: E. coli, prepared as previously described [28]
Somatotropin
  Kd1 (heterogeneous ligand model, population 1): 29.2 µM
  Kd2 (heterogeneous ligand model, population 2; column head printed as Kd1): 138 µM
Interleukin-26 [2]
  Kd: > 100 µM
Interleukin-31
  Kd1 (heterogeneous ligand model, population 1): 202 nM
  Kd2 (heterogeneous ligand model, population 2; column head printed as Kd1): 1.18 µM

B3: Human S100P mutant Δ42–47 (lacks PGFLQS sequence in the 'hinge') (natural protein)
chain: MTELETAMGMIIDVFSRYSGSEGSTQTLTKGELKVLMEKELGKDKDAVDKLLKDLDANGDAQVDFSEFIVFVAAITSACHKYFEKAGLK
notes: S100P protein, human, recombinant, with residues 42-47 (PGFLQS) deleted; source: E. coli, prepared as previously described [28]
Somatotropin
  Kd: > 100 µM
Interleukin-26 [2]
  Kd: > 100 µM
Interleukin-31
  Kd: > 100 µM
